In US20220177581A1 (Memorial Sloan Kettering, published 2022):
Residue numbers refer to the chain shown, from its start.

T1: CD22 (UniProtKB-P20273) on CD22(+) cells (human, UniProt P20273 20-847)
T1 construct: Endogenous CD22 on the NALM6 and Raji cell lines; also called SIGLEC-2; BL-CAM
T1 sequence: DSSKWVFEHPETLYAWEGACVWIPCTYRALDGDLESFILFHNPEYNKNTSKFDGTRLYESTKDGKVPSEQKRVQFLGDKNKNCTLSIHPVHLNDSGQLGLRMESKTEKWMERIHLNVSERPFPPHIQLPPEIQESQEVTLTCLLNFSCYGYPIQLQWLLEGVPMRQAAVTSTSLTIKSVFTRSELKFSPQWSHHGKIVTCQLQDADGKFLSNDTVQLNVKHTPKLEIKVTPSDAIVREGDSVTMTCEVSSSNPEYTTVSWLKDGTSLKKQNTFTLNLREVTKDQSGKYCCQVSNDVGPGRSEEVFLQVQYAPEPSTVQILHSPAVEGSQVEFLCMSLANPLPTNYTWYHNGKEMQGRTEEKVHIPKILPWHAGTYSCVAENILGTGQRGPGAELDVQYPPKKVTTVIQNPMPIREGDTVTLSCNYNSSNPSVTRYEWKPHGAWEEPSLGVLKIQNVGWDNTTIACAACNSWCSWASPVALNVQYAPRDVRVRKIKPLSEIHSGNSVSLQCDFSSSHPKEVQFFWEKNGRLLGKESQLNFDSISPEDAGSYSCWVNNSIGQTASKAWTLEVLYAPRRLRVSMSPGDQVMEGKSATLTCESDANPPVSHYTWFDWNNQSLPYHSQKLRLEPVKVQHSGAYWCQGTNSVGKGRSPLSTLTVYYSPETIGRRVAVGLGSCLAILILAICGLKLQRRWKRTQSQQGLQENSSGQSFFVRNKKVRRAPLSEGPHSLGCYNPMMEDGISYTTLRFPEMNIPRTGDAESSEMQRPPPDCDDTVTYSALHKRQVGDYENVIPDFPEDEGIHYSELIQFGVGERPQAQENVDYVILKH

T2: CD22 (antigen in the Biacore assay) (human, UniProt P20273 20-687, limits assumed)
T2 sequence: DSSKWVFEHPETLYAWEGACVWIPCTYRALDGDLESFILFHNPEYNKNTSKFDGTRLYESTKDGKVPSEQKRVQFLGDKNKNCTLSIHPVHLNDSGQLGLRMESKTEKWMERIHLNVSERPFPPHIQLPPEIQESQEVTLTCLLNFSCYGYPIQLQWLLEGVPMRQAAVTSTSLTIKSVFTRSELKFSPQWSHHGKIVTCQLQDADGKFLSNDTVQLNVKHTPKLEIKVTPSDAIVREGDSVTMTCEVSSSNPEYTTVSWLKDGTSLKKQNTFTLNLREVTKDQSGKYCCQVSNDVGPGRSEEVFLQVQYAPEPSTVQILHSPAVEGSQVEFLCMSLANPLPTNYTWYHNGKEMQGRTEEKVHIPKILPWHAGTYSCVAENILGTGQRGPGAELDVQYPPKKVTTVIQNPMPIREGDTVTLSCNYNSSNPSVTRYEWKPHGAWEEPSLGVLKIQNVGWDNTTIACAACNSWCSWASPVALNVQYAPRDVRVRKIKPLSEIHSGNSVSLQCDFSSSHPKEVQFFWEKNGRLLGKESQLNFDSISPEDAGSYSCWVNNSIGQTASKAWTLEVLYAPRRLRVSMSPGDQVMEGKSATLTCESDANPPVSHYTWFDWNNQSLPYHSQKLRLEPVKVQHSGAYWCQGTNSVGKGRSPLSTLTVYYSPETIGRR

B1: chimeric LL2 antibody (antibody, V domains shown)
VH: QVQLQESGAELSKPGASVKMSCKASGYTFTSYWLHWIKQRPGQGLEWIGYINPRNDYTEYNQNFKDKATLTADKSSSTAYMQLSSLTSEDSAVYYCARRDITTFYWGQGTTLTVSS
VL: DIQLTQSPSSLAVSAGENVTMSCKSSQSVLYSANHKNYLAWYQQKPGQSPKLLIYWASTRESGVPDRFTGSGSGTDFTLTISRVQVEDLAIYYCHQYLSSWTFGGGTKLEIK
notes: Murine LL2 variable domains with human constant domains (IgG1)
B2: humanized LL2 L1 + H9 (antibody, V domains shown)
VH: QVQLVQSGAEVKKPGASVKVSCKASGYTFTSYWLHWVRQAPGQRLEWIGYINPRNDYTEYNQNFKDRVTITADTSASTAYMELSSLRSEDTAVYYCARRDITTFYWGQGTTLTVSS
VL: B1 VL with Q3V, S9D, N18R, S22N, S49P, T69S, R83S, V86A, L89V
notes: Human IgG1 frameworks; also called H9L1
B3: humanized LL2 L2 + H2 (antibody, V domains shown)
VH: QVQLQESGAEVKKPGASVKMSCKASGYTFTSYWLHWIRQAPGQRLEWIGYINPRNDYTKYSQKFQGRVTLTRDKSASTAYMELSSLRSEDTAVYYCARRDITTFYWGQGTTLTVSS
VL: B1 VL with Q3V, S9D, A15L, N18R, S22N, T69S, R83S, V86A, L89V
notes: Human IgG1 frameworks
B4: humanized LL2 L1 + H12 (antibody, V domains shown)
VH: B2 VH with V5Q, V20M, I48M
VL: B1 VL with Q3V, S9D, N18R, S22N, S49P, T69S, R83S, V86A, L89V
notes: Human IgG1 frameworks; also called H12L1; VL1-VH12
B5: humanized LL2 L1 + H3 (antibody, V domains shown)
VH: B3 VH with E6Q, M20V, K59E, V68A, R72A, K74T
VL: B1 VL with Q3V, S9D, N18R, S22N, S49P, T69S, R83S, V86A, L89V
notes: Human IgG1 frameworks; also called H3L1
B6: humanized LL2 L1 + H8 (antibody, V domains shown)
VH: B2 VH with Q6E, V37I, I48M, A72R
VL: B1 VL with Q3V, S9D, N18R, S22N, S49P, T69S, R83S, V86A, L89V
notes: Human IgG1 frameworks
B7: humanized LL2 L2 + H4 (antibody, V domains shown)
VH: B3 VH with E6Q, I48M, K59E, S61N, V68A, L70I, R72A
VL: B1 VL with Q3V, S9D, A15L, N18R, S22N, T69S, R83S, V86A, L89V
notes: Human IgG1 frameworks
B8: humanized LL2 L1 + H11 (antibody, V domains shown)
VH: B2 VH with V20M, I48M, V68A
VL: B1 VL with Q3V, S9D, N18R, S22N, S49P, T69S, R83S, V86A, L89V
notes: Human IgG1 frameworks; also called H11L1; VL1-VH11
B9: humanized LL2 L2 + H6 (antibody, V domains shown)
VH: B2 VH with V5Q, V37I, I48M, A72R
VL: B1 VL with Q3V, S9D, A15L, N18R, S22N, T69S, R83S, V86A, L89V
notes: Human IgG1 frameworks
B10: humanized LL2 L1 + H2 (antibody, V domains shown)
VH: B3 VH
VL: B1 VL with Q3V, S9D, N18R, S22N, S49P, T69S, R83S, V86A, L89V
notes: Human IgG1 frameworks; also called H2L1
B11: humanized LL2 L2 + H10 (antibody, V domains shown)
VH: B2 VH with I48M, I70L, T74K
VL: B1 VL with Q3V, S9D, A15L, N18R, S22N, T69S, R83S, V86A, L89V
notes: Human IgG1 frameworks
B12: humanized LL2 L2 + H9 (antibody, V domains shown)
VH: B2 VH
VL: B1 VL with Q3V, S9D, A15L, N18R, S22N, T69S, R83S, V86A, L89V
notes: Human IgG1 frameworks
B13: humanized LL2 L2 + H7 (antibody, V domains shown)
VH: B2 VH with Q6E, I48M, V68A, A72R
VL: B1 VL with Q3V, S9D, A15L, N18R, S22N, T69S, R83S, V86A, L89V
notes: Human IgG1 frameworks
B14: humanized LL2 L1 + H5 (antibody, V domains shown)
VH: B3 VH with M20V, I37V, K59E, V68A, R72A, K74T
VL: B1 VL with Q3V, S9D, N18R, S22N, S49P, T69S, R83S, V86A, L89V
notes: Human IgG1 frameworks; also called H5L1
B15: humanized LL2 L1 + H10 (antibody, V domains shown)
VH: B2 VH with I48M, I70L, T74K
VL: B1 VL with Q3V, S9D, N18R, S22N, S49P, T69S, R83S, V86A, L89V
notes: Human IgG1 frameworks; also called H10L1
B16: humanized LL2 L1 + H7 (antibody, V domains shown)
VH: B2 VH with Q6E, I48M, V68A, A72R
VL: B1 VL with Q3V, S9D, N18R, S22N, S49P, T69S, R83S, V86A, L89V
notes: Human IgG1 frameworks
B17: humanized LL2 L2 + H12 (antibody, V domains shown)
VH: B2 VH with V5Q, V20M, I48M
VL: B1 VL with Q3V, S9D, A15L, N18R, S22N, T69S, R83S, V86A, L89V
notes: Human IgG1 frameworks
B18: humanized LL2 L2 + H11 (antibody, V domains shown)
VH: B2 VH with V20M, I48M, V68A
VL: B1 VL with Q3V, S9D, A15L, N18R, S22N, T69S, R83S, V86A, L89V
notes: Human IgG1 frameworks
B19: humanized LL2 L1 + H4 (antibody, V domains shown)
VH: B3 VH with E6Q, I48M, K59E, S61N, V68A, L70I, R72A
VL: B1 VL with Q3V, S9D, N18R, S22N, S49P, T69S, R83S, V86A, L89V
notes: Human IgG1 frameworks; also called H4L1
B20: humanized LL2 L2 + H8 (antibody, V domains shown)
VH: B2 VH with Q6E, V37I, I48M, A72R
VL: B1 VL with Q3V, S9D, A15L, N18R, S22N, T69S, R83S, V86A, L89V
notes: Human IgG1 frameworks
B21: humanized LL2 L2 + H3 (antibody, V domains shown)
VH: B3 VH with E6Q, M20V, K59E, V68A, R72A, K74T
VL: B1 VL with Q3V, S9D, A15L, N18R, S22N, T69S, R83S, V86A, L89V
notes: Human IgG1 frameworks
B22: humanized LL2 L1 + H1 (antibody, V domains shown)
VH: B3 VH with Q5V, V68A, L70I, R72A
VL: B1 VL with Q3V, S9D, N18R, S22N, S49P, T69S, R83S, V86A, L89V
notes: Human IgG1 frameworks
B23: humanized LL2 L2 + H1 (antibody, V domains shown)
VH: B3 VH with Q5V, V68A, L70I, R72A
VL: B1 VL with Q3V, S9D, A15L, N18R, S22N, T69S, R83S, V86A, L89V
notes: Human IgG1 frameworks; also called H1L2
B24: humanized LL2 L1 + H6 (antibody, V domains shown)
VH: B2 VH with V5Q, V37I, I48M, A72R
VL: B1 VL with Q3V, S9D, N18R, S22N, S49P, T69S, R83S, V86A, L89V
notes: Human IgG1 frameworks; also called H6L1
B25: humanized LL2 L2 + H5 (antibody, V domains shown)
VH: B3 VH with M20V, I37V, K59E, V68A, R72A, K74T
VL: B1 VL with Q3V, S9D, A15L, N18R, S22N, T69S, R83S, V86A, L89V
notes: Human IgG1 frameworks

What was measured:
[1] = target: T1, CD22 (UniProtKB-P20273) on CD22(+) cells; assay: flow cytometry on CD22(+) NALM6 cells
[2] = target: T2, CD22 (antigen in the Biacore assay); assay: SPR (Biacore) at 37° C

MFI (FACS NALM6) [1] | Kd [2] | koff [2] | kon [2] | Binder
33.4 | 1.37 pM | 2.31e-07 s⁻¹ | 169000 M⁻¹ s⁻¹ | B1
34.5 | 24.8 pM | 3.3e-06 s⁻¹ | 133000 M⁻¹ s⁻¹ | B2
28.1 |  |  |  | B3
39.2 | 2.05 pM | 5.88e-07 s⁻¹ | 287000 M⁻¹ s⁻¹ | B4
31.9 | 34.4 pM | 3.09e-06 s⁻¹ | 89800 M⁻¹ s⁻¹ | B5
23.3 |  |  |  | B6
35.9 |  |  |  | B7
33.6 | 0.0104 pM | 1.71e-09 s⁻¹ | 164000 M⁻¹ s⁻¹ | B8
36.1 |  |  |  | B9
32.8 | 1720 pM | 0.00478 s⁻¹ | 2.77e+06 M⁻¹ s⁻¹ | B10
37 |  |  |  | B11
34.3 |  |  |  | B12
27.3 |  |  |  | B13
35.2 | 41 pM | 4.19e-06 s⁻¹ | 102000 M⁻¹ s⁻¹ | B14
32.7 | 0.0435 pM | 7.67e-09 s⁻¹ | 176000 M⁻¹ s⁻¹ | B15
21.8 |  |  |  | B16
31.7 |  |  |  | B17
36.3 |  |  |  | B18
33.6 | 0.00191 pM |  | 154000 M⁻¹ s⁻¹ | B19
26.7 |  |  |  | B20
36.8 |  |  |  | B21
26.4 |  |  |  | B22
40 | 403 pM | 0.00219 s⁻¹ | 5.43e+06 M⁻¹ s⁻¹ | B23
33.5 | 0.17 pM | 2.91e-08 s⁻¹ | 171000 M⁻¹ s⁻¹ | B24
40.4 |  |  |  | B25
